Experimental data reported in IntAct's records for PubMed 31217420.

B1: Acid sphingomyelinase-like phosphodiesterase 3b (Homo sapiens), Q92485-2 (parent)
chain: MRLLAWLIFLANWGGARAEPGKFWHIADLHLDPDYKVSKDPFQVCPSAGSQPVPDAGPWGDYLCDSPWALINSSIYAMKEIEPEPDFILWTGDDTPHVPDEKLGEAAVLEIVERLTKLIREVFPDTKVYAALGNHDFHPKNQFPAGSNNIYNQIAELWKPWLSNESIALFKKGAFYCEKLPGPSGAGRIVVLNTNLYYTSNALTADMADPGQQFQWLEDVLTDASKAGDMVYIVGHVPPGFFEKTQNKAWFREGFNEKYLKVVRKHHRVIAGQFFGHHHTDSFRMLYDDAGVPISAMFITPGVTPWKTTLPGVVNGANNPAIRVFEYDRATLSLKVRSPAEARGGGWEGLKCITTFPHSQLIHLPLTTEPQEG

Variants of: B1
Conditions: with INSR

Variant | effect of a mutation on the interaction
MRLLAWLIFLANWGGARAEPGKFWHIADLHLDPDYKVSKDPFQVCPSAGSQPVPDAGPWGDYLCDSPWALINSSIYAMKEIEPEPDFILWTGDDTPHVPDEKLGEAAVLEIVERLTKLIREVFPDTKVYAALGNADFHPKNQFPAGSNNIYNQIAELWKPWLSNESIALFKKGAFYCEKLPGPSGAGRIVVLNTNLYYTSNALTADMADPGQQFQWLEDVLTDASKAGDMVYIVGHVPPGFFEKTQNKAWFREGFNEKYLKVVRKHHRVIAGQFFGHHHTDSFRMLYDDAGVPISAMFITPGVTPWKTTLPGVVNGANNPAIRVFEYDRATLSLKVRSPAEARGGGWEGLKCITTFPHSQLIHLPLTTEPQEG [H135A] | with no effect

Variants of: B1
Conditions: with INSR
Remark: another data set of the same source

Variant | effect of a mutation on the interaction
MRLLAWLIFLANWGGARAEPGKFWHIADLHLDPDYKVSKDPFQVCPSAGSQPVPDAGPWGDYLCDSPWALINSSIYAMKEIEPEPDFILWTGDDTPHVPDEKLGEAAVLEIVERLTKLIREVFPDTKVYAALGNADFHPKNQFPAGSNNIYNQIAELWKPWLSNESIALFKKGAFYCEKLPGPSGAGRIVVLNTNLYYTSNALTADMADPGQQFQWLEDVLTDASKAGDMVYIVGHVPPGFFEKTQNKAWFREGFNEKYLKVVRKHHRVIAGQFFGHHHTDSFRMLYDDAGVPISAMFITPGVTPWKTTLPGVVNGANNPAIRVFEYDRATLSLKVRSPAEARGGGWEGLKCITTFPHSQLIHLPLTTEPQEG [H135A] | with no effect

Variants of: B1
Conditions: with CAV1, Q03135-1
CAV1, Q03135-1, sequence (Q03135 whole entry): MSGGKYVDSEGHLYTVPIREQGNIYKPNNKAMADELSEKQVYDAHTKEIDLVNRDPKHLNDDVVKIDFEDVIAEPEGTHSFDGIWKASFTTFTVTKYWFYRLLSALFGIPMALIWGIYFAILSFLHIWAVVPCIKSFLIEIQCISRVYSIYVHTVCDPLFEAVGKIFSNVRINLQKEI

Variant | effect of a mutation on the interaction
MRLLAWLIFLANWGGARAEPGKFWHIADLHLDPDYKVSKDPFQVCPSAGSQPVPDAGPWGDYLCDSPWALINSSIYAMKEIEPEPDFILWTGDDTPHVPDEKLGEAAVLEIVERLTKLIREVFPDTKVYAALGNADFHPKNQFPAGSNNIYNQIAELWKPWLSNESIALFKKGAFYCEKLPGPSGAGRIVVLNTNLYYTSNALTADMADPGQQFQWLEDVLTDASKAGDMVYIVGHVPPGFFEKTQNKAWFREGFNEKYLKVVRKHHRVIAGQFFGHHHTDSFRMLYDDAGVPISAMFITPGVTPWKTTLPGVVNGANNPAIRVFEYDRATLSLKVRSPAEARGGGWEGLKCITTFPHSQLIHLPLTTEPQEG [H135A] | with no effect
